In the supplement of paper PMC9112550, “Optimization of the antimicrobial peptide Bac7 by deep mutational scanning” (BMC Biology, 2022):

System: Escherichia coli TOP10
Experiment: shrunken log2 fold change of peptide-encoding DNA abundance (4.5 h post-induction vs induction); higher = less antimicrobial activity (less host growth inhibition)
Conditions: time post-induction: 4.5 h; library: site-saturation at positions 5, 18, 19, 20
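Further: peptides expressed intracellularly from a pBAD plasmid library in pooled LB shake-flask culture, induced with 0.3% L-arabinose, DNA abundance read by NGS, three biological replicates, DESeq2 with apeglm shrinkage.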

Sequence: RRIRPRPPRLPRPRPRPDDRPRP
- shrunken log2 fold change: 0.162

Sequence: RRIRTRPPRLPRPRPRPSPPPRP
- shrunken log2 fold change: -0.0898

Sequence: RRIRFRPPRLPRPRPRPTCKPRP
- shrunken log2 fold change: -0.295

Sequence: RRIRFRPPRLPRPRPRPWQRPRP
- shrunken log2 fold change: -0.0586

Sequence: RRIRPRPPRLPRPRPRPRYYPRP
- shrunken log2 fold change: -0.385

Sequence: RRIRLRPPRLPRPRPRPMQKPRP
- shrunken log2 fold change: -0.0247

Sequence: RRIRYRPPRLPRPRPRPQPLPRP
- shrunken log2 fold change: -0.00898

Sequence: RRIRGRPPRLPRPRPRPVKNPRP
- shrunken log2 fold change: 0.554

Sequence: RRIRVRPPRLPRPRPRPSWDPRP
- shrunken log2 fold change: 0.192

Sequence: RRIRLRPPRLPRPRPRPLHHPRP
- shrunken log2 fold change: -0.533

Sequence: RRIRLRPPRLPRPRPRPTRQPRP
- shrunken log2 fold change: -0.0888

Sequence: RRIRARPPRLPRPRPRPQSNPRP
- shrunken log2 fold change: -0.142

Sequence: RRIRFRPPRLPRPRPRPCHWPRP
- shrunken log2 fold change: -0.127

Sequence: RRIRSRPPRLPRPRPRPWTFPRP
- shrunken log2 fold change: -0.199

Sequence: RRIRGRPPRLPRPRPRPGINPRP
- shrunken log2 fold change: 0.499

Sequence: RRIRVRPPRLPRPRPRPNHHPRP
- shrunken log2 fold change: -0.373

Sequence: RRIRPRPPRLPRPRPRPAWKPRP
- shrunken log2 fold change: -0.109

Sequence: RRIRWRPPRLPRPRPRPERRPRP
- shrunken log2 fold change: 0.327

Sequence: RRIRYRPPRLPRPRPRPDCVPRP
- shrunken log2 fold change: -0.3

Sequence: RRIRQRPPRLPRPRPRPIPEPRP
- shrunken log2 fold change: 0.0343

Sequence: RRIRFRPPRLPRPRPRPEAFPRP
- shrunken log2 fold change: 1.82

Sequence: RRIRHRPPRLPRPRPRPYHNPRP
- shrunken log2 fold change: -0.853

Sequence: RRIRSRPPRLPRPRPRPWMWPRP
- shrunken log2 fold change: -0.0985

Sequence: RRIRKRPPRLPRPRPRPNMGPRP
- shrunken log2 fold change: -0.215

Sequence: RRIRSRPPRLPRPRPRPENDPRP
- shrunken log2 fold change: -0.0386

Sequence: RRIRERPPRLPRPRPRPALEPRP
- shrunken log2 fold change: 0.0291

Sequence: RRIRARPPRLPRPRPRPGALPRP
- shrunken log2 fold change: 1.22

Sequence: RRIRTRPPRLPRPRPRPHKQPRP
- shrunken log2 fold change: -0.148

Sequence: RRIRHRPPRLPRPRPRPARFPRP
- shrunken log2 fold change: 0.358

Sequence: RRIRTRPPRLPRPRPRPRCRPRP
- shrunken log2 fold change: 0.158

Sequence: RRIRPRPPRLPRPRPRPKSLPRP
- shrunken log2 fold change: -0.015

Sequence: RRIRGRPPRLPRPRPRPLECPRP
- shrunken log2 fold change: 0.447

Sequence: RRIRNRPPRLPRPRPRPMVAPRP
- shrunken log2 fold change: 0.0624

Sequence: RRIRLRPPRLPRPRPRPQCWPRP
- shrunken log2 fold change: -0.0159

Sequence: RRIRHRPPRLPRPRPRPLNRPRP
- shrunken log2 fold change: 0.0215

Sequence: RRIRARPPRLPRPRPRPATWPRP
- shrunken log2 fold change: 0.37

Sequence: RRIRMRPPRLPRPRPRPSCYPRP
- shrunken log2 fold change: -0.348

Sequence: RRIRNRPPRLPRPRPRPHWRPRP
- shrunken log2 fold change: 0.201

Sequence: RRIRTRPPRLPRPRPRPGFYPRP
- shrunken log2 fold change: -0.159

Sequence: RRIRPRPPRLPRPRPRPTIPPRP
- shrunken log2 fold change: -0.361

Sequence: RRIRYRPPRLPRPRPRPWKDPRP
- shrunken log2 fold change: -0.0122

Sequence: RRIRQRPPRLPRPRPRPRNDPRP
- shrunken log2 fold change: -0.485

Sequence: RRIRDRPPRLPRPRPRPQLFPRP
- shrunken log2 fold change: -0.0901

Sequence: RRIRRRPPRLPRPRPRPVLYPRP
- shrunken log2 fold change: -0.142

Sequence: RRIRTRPPRLPRPRPRPCYGPRP
- shrunken log2 fold change: -0.146

Sequence: RRIRPRPPRLPRPRPRPHIFPRP
- shrunken log2 fold change: -0.0487

Sequence: RRIRVRPPRLPRPRPRPHRMPRP
- shrunken log2 fold change: -0.457

Sequence: RRIRGRPPRLPRPRPRPPSTPRP
- shrunken log2 fold change: 0.643

Sequence: RRIRPRPPRLPRPRPRPLFEPRP
- shrunken log2 fold change: 0.163

Sequence: RRIRVRPPRLPRPRPRPHIAPRP
- shrunken log2 fold change: -0.235

Sequence: RRIRDRPPRLPRPRPRPVAKPRP
- shrunken log2 fold change: 0.356

Sequence: RRIRCRPPRLPRPRPRPWVCPRP
- shrunken log2 fold change: 0.0107

Sequence: RRIRQRPPRLPRPRPRPRGLPRP
- shrunken log2 fold change: 0.00877

Sequence: RRIRDRPPRLPRPRPRPVMCPRP
- shrunken log2 fold change: 0.156

Sequence: RRIRPRPPRLPRPRPRPMKDPRP
- shrunken log2 fold change: -0.313

Sequence: RRIRFRPPRLPRPRPRPLMTPRP
- shrunken log2 fold change: 0.189

Sequence: RRIRKRPPRLPRPRPRPDVCPRP
- shrunken log2 fold change: -0.0122

Sequence: RRIRLRPPRLPRPRPRPPSFPRP
- shrunken log2 fold change: -0.244

Sequence: RRIRPRPPRLPRPRPRPQPMPRP
- shrunken log2 fold change: 0.225

Sequence: RRIRNRPPRLPRPRPRPVCEPRP
- shrunken log2 fold change: 1.34

Sequence: RRIRLRPPRLPRPRPRPYVPPRP
- shrunken log2 fold change: -0.383

Sequence: RRIRMRPPRLPRPRPRPIYFPRP
- shrunken log2 fold change: -0.141

Sequence: RRIRNRPPRLPRPRPRPAPYPRP
- shrunken log2 fold change: 0.0296

Sequence: RRIRWRPPRLPRPRPRPEVNPRP
- shrunken log2 fold change: 0.321

Sequence: RRIRGRPPRLPRPRPRPYLMPRP
- shrunken log2 fold change: -0.0538

Sequence: RRIRLRPPRLPRPRPRPDQAPRP
- shrunken log2 fold change: -0.00133

Sequence: RRIRCRPPRLPRPRPRPWFIPRP
- shrunken log2 fold change: -0.51

Sequence: RRIRWRPPRLPRPRPRPRREPRP
- shrunken log2 fold change: 0.427

Sequence: RRIRDRPPRLPRPRPRPEAYPRP
- shrunken log2 fold change: -0.0102

Sequence: RRIRCRPPRLPRPRPRPVVSPRP
- shrunken log2 fold change: -0.229

Sequence: RRIRGRPPRLPRPRPRPSCNPRP
- shrunken log2 fold change: 0.588

Sequence: RRIRMRPPRLPRPRPRPSKKPRP
- shrunken log2 fold change: -0.0297

Sequence: RRIRSRPPRLPRPRPRPWYYPRP
- shrunken log2 fold change: -0.518

Sequence: RRIRVRPPRLPRPRPRPTKPPRP
- shrunken log2 fold change: 0.172

Sequence: RRIRYRPPRLPRPRPRPTTYPRP
- shrunken log2 fold change: -0.941

Sequence: RRIRVRPPRLPRPRPRPKKAPRP
- shrunken log2 fold change: 0.157

Sequence: RRIRERPPRLPRPRPRPYVFPRP
- shrunken log2 fold change: -0.575

Sequence: RRIRSRPPRLPRPRPRPVGDPRP
- shrunken log2 fold change: 0.0704

Sequence: RRIRVRPPRLPRPRPRPVFTPRP
- shrunken log2 fold change: -0.14

Sequence: RRIRCRPPRLPRPRPRPTKTPRP
- shrunken log2 fold change: 0.137

Sequence: RRIRKRPPRLPRPRPRPERRPRP
- shrunken log2 fold change: 0.337

Sequence: RRIRPRPPRLPRPRPRPQAAPRP
- shrunken log2 fold change: 0.116

Sequence: RRIRERPPRLPRPRPRPRVHPRP
- shrunken log2 fold change: 0.0407

Sequence: RRIRQRPPRLPRPRPRPVWCPRP
- shrunken log2 fold change: 0.0608

Sequence: RRIRKRPPRLPRPRPRPNHEPRP
- shrunken log2 fold change: -0.0766

Sequence: RRIRDRPPRLPRPRPRPELQPRP
- shrunken log2 fold change: 0.072

Sequence: RRIRGRPPRLPRPRPRPQGVPRP
- shrunken log2 fold change: -0.0465

Sequence: RRIRCRPPRLPRPRPRPMDRPRP
- shrunken log2 fold change: -0.0115

Sequence: RRIRRRPPRLPRPRPRPLENPRP
- shrunken log2 fold change: 0.194

Sequence: RRIRCRPPRLPRPRPRPHWHPRP
- shrunken log2 fold change: -0.42

Sequence: RRIRGRPPRLPRPRPRPIQQPRP
- shrunken log2 fold change: 0.0149

Sequence: RRIRSRPPRLPRPRPRPSQFPRP
- shrunken log2 fold change: -0.345

Sequence: RRIRERPPRLPRPRPRPEIRPRP
- shrunken log2 fold change: -0.163

Sequence: RRIRYRPPRLPRPRPRPRNMPRP
- shrunken log2 fold change: -0.56

Sequence: RRIRYRPPRLPRPRPRPSFAPRP
- shrunken log2 fold change: -0.332

Sequence: RRIRSRPPRLPRPRPRPEKSPRP
- shrunken log2 fold change: -0.32

Sequence: RRIRTRPPRLPRPRPRPVTDPRP
- shrunken log2 fold change: 0.0266

Sequence: RRIRRRPPRLPRPRPRPAMLPRP
- shrunken log2 fold change: 1.02

Sequence: RRIRGRPPRLPRPRPRPKAFPRP
- shrunken log2 fold change: 0.157

Sequence: RRIRNRPPRLPRPRPRPSTFPRP
- shrunken log2 fold change: -0.276

Sequence: RRIRHRPPRLPRPRPRPAKDPRP
- shrunken log2 fold change: -0.0214

Sequence: RRIRPRPPRLPRPRPRPCNLPRP
- shrunken log2 fold change: -0.593

Sequence: RRIRARPPRLPRPRPRPEWYPRP
- shrunken log2 fold change: 0.137

Sequence: RRIRHRPPRLPRPRPRPKGCPRP
- shrunken log2 fold change: 0.031

Sequence: RRIRERPPRLPRPRPRPRHLPRP
- shrunken log2 fold change: -0.427

Sequence: RRIRARPPRLPRPRPRPGFPPRP
- shrunken log2 fold change: 0.213

Sequence: RRIRLRPPRLPRPRPRPMSPPRP
- shrunken log2 fold change: 0.0855

Sequence: RRIRVRPPRLPRPRPRPTSDPRP
- shrunken log2 fold change: 0.431

Sequence: RRIRGRPPRLPRPRPRPRANPRP
- shrunken log2 fold change: 0.816

Sequence: RRIRFRPPRLPRPRPRPLEKPRP
- shrunken log2 fold change: -0.14

Sequence: RRIRLRPPRLPRPRPRPAANPRP
- shrunken log2 fold change: 0.273

Sequence: RRIRIRPPRLPRPRPRPVGAPRP
- shrunken log2 fold change: 0.475

Sequence: RRIRQRPPRLPRPRPRPLFLPRP
- shrunken log2 fold change: -0.65

Sequence: RRIRSRPPRLPRPRPRPEVRPRP
- shrunken log2 fold change: -0.109

Sequence: RRIRPRPPRLPRPRPRPYGDPRP
- shrunken log2 fold change: -0.156

Sequence: RRIRYRPPRLPRPRPRPSTCPRP
- shrunken log2 fold change: -0.687

Sequence: RRIRFRPPRLPRPRPRPKWAPRP
- shrunken log2 fold change: -0.075

Sequence: RRIRHRPPRLPRPRPRPVLAPRP
- shrunken log2 fold change: 0.126

Sequence: RRIRNRPPRLPRPRPRPRNTPRP
- shrunken log2 fold change: -0.505

Sequence: RRIRFRPPRLPRPRPRPNPTPRP
- shrunken log2 fold change: 0.0233

Sequence: RRIRMRPPRLPRPRPRPDTRPRP
- shrunken log2 fold change: -0.0141

Sequence: RRIRFRPPRLPRPRPRPSSSPRP
- shrunken log2 fold change: -0.625

Sequence: RRIRNRPPRLPRPRPRPWTAPRP
- shrunken log2 fold change: -0.0401

Sequence: RRIRGRPPRLPRPRPRPPGSPRP
- shrunken log2 fold change: 1.09

Sequence: RRIRNRPPRLPRPRPRPMHQPRP
- shrunken log2 fold change: -0.19
